Test results taken from patent US20160185865A1 (Dana-Farber, published 2016).

Experiments:
[1] = biological target: T1, human CC chemokine receptor 4 (CCR4) (human, UniProt P51679 1-360); test: FACS titration (GMFI), 0 to 100 µg/mL in two-fold steps; cells not named in the legend
T1 construct: whole, on cells; also called hCCR4
T1 sequence (looked up): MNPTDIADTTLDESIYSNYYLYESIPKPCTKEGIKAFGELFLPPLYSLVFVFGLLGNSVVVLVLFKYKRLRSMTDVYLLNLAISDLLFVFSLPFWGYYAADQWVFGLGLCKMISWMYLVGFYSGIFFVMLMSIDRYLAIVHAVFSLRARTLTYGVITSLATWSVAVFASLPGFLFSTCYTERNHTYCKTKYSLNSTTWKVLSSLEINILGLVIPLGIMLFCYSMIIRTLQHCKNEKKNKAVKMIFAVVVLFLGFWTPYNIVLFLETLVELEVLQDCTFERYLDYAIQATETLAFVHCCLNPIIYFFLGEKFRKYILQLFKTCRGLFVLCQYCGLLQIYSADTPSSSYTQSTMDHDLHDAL

[2] = biological target: T1, human CC chemokine receptor 4 (CCR4); test: FACS, CCR4+ Mac-1 cells, dose dependent binding curve
[3] = biological target: T1, human CC chemokine receptor 4 (CCR4); test: binding curve of FIG. 20B; cells not given

Binder | EC50 [3] [nM] | further results
h1567 VL-CDR3 mutant M1 (H105Q) (Fc fusion, not shown: a dimerising Fc or GST) scFv: QVQLVQSGAEVKKPGASVKVSCKASGYTFASYYMHWMRQAPGQGLEWIGWINPGNVNTKYNEKFKGRATLTVDTSTNTAYMELSSLRSEDTAVYYCARSTYYRPLDYWGQGTLVTVSSGGGGSGGGGSGGGGSDIVMTQSPDSLAVSLGERATINCKSSQSILYSSNQKNYLAWYQQKPGQSPKLLIYWASTRESGVPDRFSGSGSGTDFTLTISSLQAEDVAVYYCQQYLSSYTFGQGTKLEIK |  | EC50 (read off the curve) [1]: ~0.5 µg/mL
Antibody 2-3 scFv-Fc (Fc fusion, not shown: a dimerising Fc or GST, also called Ab2-3 scFv-Fc; Mab 2-3) scFv: QVQLVQSGAEVKKPGASVKVSCKASGYTFASAWMHWMRQAPGQGLEWIGWINPGNVNTKYNEKFKGRATLTVDTSTNTAYMELSSLRSEDTAVYYCARSTYYRPLDYWGQGTLVTVSSGGGGSGGGGSGGGGSDIVMTQSPDSLAVSLGERATINCKSSQSILYSSNQKNYLAWYQQKPGQSPKLLIYWASTRESGVPDRFSGSGSGTDFTLTISSLQAEDVAVYYCHQYMSSYTFGQGTKLEIK |  | EC50 [2]: 1.39 nM
KW0761 (humanized KM2760 antibody) (antibody, V domains shown) VH: EVQLVESGGDLVQPGRSLRLSCAASGFIFSNYGMSWVRQAPGKGLEWVATISSASTYSYYPDSVKGRFTISRDNAKNSLYLQMNSLRVEDTALYYCGRHSDGNFAFGYWGQGTLVTVSS VL: DVLMTQSPLSLPVTPGEPASISCRSSRNIVHINGDTYLEWYLQKPGQSPQLLIYKVSNRFSGVPDRFSGSGSGTDFTLKISRVEAEDVGVYYCFQGSLLPWTFGQGTKVEIK | 2.19 | 
mAb2-3 (Ab2-3IgG) (antibody, V domains shown, IgG form made by cloning VH and VL into the TCAE5.3 vector (human IgG1); also called APC-labeled mAb2-3) VH: QVQLVQSGAEVKKPGASVKVSCKASGYTFASAWMHWMRQAPGQGLEWIGWINPGNVNTKYNEKFKGRATLTVDTSTNTAYMELSSLRSEDTAVYYCARSTYYRPLDYWGQGTLVTVSS VL: not shown | 0.35 | 
